# Measurements: PMC5727538, “Comprehensive analysis of the catalytic and structural properties of a mu-class glutathione s-transferase from Fasciola gigantica” (Scientific Reports, 2017)
# B1: mu-class glutathione S-transferase from Fasciola gigantica (FgGST1) (enzyme)
# chain: MPATLGYWKLRGLAQPIRLLLEFVGEKYEEQIYERDDGEKWFSKKFELGLDLPNLPYYIDDKCKLTQSLAILRYIADKHGMIGSTPEERARVSMIEGAAVDLRQGLSRISYDPKFEQLKEGYLKDLPTTMKMWSDFLGKNLYLRGTSVSHVDFMVYEALDAIRYLEPHCLDHFPNLQQFMSRIEALPSIKAYMESNRFIKWPLNGWHAQFGGGDAPPSHEKK
# Target: the molecule itself
# Assay: SEC; Superdex 200 10/300 GL on AKTA-FPLC, 20 mM phosphate buffer pH 7.5, 150 mM NaCl, 0.3 mL/min; calibrated with molecular weight markers; elution at 15.4 mL, about 50 kDa
protein,measurement,value
B1,stoichiometry N,2
